As a reminder, the stoichiometry N is a count of units in the complex or per binding partner.

Data on two molecules can be found in publication doi:10.1101/2022.12.09.519754, “Conformational restriction shapes inhibition of a multidrug efflux adaptor protein” (bioRxiv, 2022).

Data set [1] concerns the molecule itself. Kind of data set: native MS; AcrA^L in 100 mM ammonium acetate pH 7.4 with 0.03 % DDM.
Data set [2] concerns the molecule itself. Kind of data set: native MS; AcrA^L in 100 mM ammonium acetate pH 6.0 with 0.03 % DDM (2 x CMC); sampling cone 120 V, trap collision energy 50-200 V.
Data set [3] addresses T1, AcrB in SMALP (styrene maleic acid lipid particle) native nanodiscs (E. coli, UniProt P31224 1-1049).
T1 construct: AcrB, inner membrane transporter of AcrAB-TolC, E. coli; Embedded in native lipid nanodiscs; also called trimeric AcrB SMALPs; source: E. coli C43(DE3) ΔacrAB, pET15b; extracted from membranes with 2.5% SMA 2000, purified (nickel NTA, PD-10 desalting)
T1 sequence: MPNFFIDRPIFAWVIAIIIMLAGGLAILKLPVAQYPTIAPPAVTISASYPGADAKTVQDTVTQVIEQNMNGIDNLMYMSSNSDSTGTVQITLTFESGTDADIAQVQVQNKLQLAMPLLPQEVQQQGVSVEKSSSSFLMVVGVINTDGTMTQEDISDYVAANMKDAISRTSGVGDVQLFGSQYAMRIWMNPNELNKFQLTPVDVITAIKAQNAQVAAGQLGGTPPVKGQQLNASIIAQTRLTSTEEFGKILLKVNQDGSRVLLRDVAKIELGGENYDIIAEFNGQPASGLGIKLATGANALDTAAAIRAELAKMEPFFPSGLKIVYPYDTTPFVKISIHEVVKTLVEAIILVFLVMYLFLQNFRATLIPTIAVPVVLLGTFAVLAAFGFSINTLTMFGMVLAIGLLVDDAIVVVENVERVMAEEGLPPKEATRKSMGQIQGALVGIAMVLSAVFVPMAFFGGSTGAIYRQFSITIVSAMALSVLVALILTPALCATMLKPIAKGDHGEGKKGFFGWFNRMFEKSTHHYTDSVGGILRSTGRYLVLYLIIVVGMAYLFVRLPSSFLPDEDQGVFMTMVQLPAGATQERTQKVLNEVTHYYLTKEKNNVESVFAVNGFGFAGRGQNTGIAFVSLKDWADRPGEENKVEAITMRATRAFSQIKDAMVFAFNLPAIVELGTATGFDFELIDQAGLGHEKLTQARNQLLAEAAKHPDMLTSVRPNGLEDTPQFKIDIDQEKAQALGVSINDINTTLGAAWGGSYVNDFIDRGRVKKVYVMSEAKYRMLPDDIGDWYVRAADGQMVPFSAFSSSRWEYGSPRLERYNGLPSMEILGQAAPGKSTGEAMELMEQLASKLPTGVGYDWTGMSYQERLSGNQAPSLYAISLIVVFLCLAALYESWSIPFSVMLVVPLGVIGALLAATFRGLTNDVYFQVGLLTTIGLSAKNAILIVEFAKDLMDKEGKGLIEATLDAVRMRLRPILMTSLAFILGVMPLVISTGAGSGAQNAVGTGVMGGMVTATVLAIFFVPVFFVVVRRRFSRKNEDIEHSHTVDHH
Description: native gel or EMSA; SMA-PAGE (native PAGE for SMALPs): AcrB in SMALP nanodiscs with AcrA^S or AcrA^SD; Novex Tris-glycine 4-20% gels, 25 mM Tris pH 8.8, 192 mM glycine, 150 V, 90-120 min, 4 °C, Coomassie stain. The settings on record: both partners purified.

Changes are numbered by the printed parent chain.

B1: AcrA^L (lipidated AcrA, expressed from full length AcrA with its signal peptide) (natural protein)
chain: CDDKQAQQGGQQMPAVGVVTVKTEPLQITTELPGRTSAYRIAEVRPQVSGIILKRNFKEGSDIEAGVSLYQIDPATYQATYDSAKGDLAKAQAAANIAQLTVNRYQKLLGTQYISKQEYDQALADAQQANAAVTAAKAAVETARINLAYTKVTSPISGRIGKSNVTEGALVQNGQATALATVQQLDPIYVDVTQSSNDFLRLKQELANGTLKQENGKAKVSLITSDGIKFPQDGTLEFSDVTVDQTTGSITLRAIFPNPDHTLLPGMFVRARLEEGLNPNAILVPQQGVTRTPRGDATVLVVGADDKVETRPIVASQAIGDKWLVTEGLKAGDRVVISGLQKVRPGVQVKAQEVTADNNQQAASGAQPEQSKS
modifications: lipidated (palmitoylation) at Cys25 after cleavage of signal peptide 1-24
notes: AcrA, periplasmic adaptor protein of AcrAB-TolC, E. coli; full length AcrA amplified from genomic DNA; signal peptide residues 1-24 are cleaved and Cys25 is lipidated, so the protein in the assay starts at Cys25; Measured in DDM micelles (0.03 % DDM, 2 x CMC); source: E. coli C43(DE3) ΔacrAB, pET28a; solubilised from membranes with 1% DDM, purified (HiTrap, SEC) in 0.03% DDM
B1: the “stoichiometry N” value in data set [1] was at most 5; in data set [2], 2.

B2: AcrA^S (soluble AcrA lacking signal peptide and lipidation, Cys25Met) (natural protein)
chain: B1 chain with C1M
notes: AcrA, E. coli; lacks signal peptide residues 1-24; Cys25 replaced by a starting methionine (Met25); not lipidated; source: E. coli C43(DE3) ΔacrAB, pET28a; purified from the cytoplasmic fraction (HiTrap, SEC)
With B2, in data set [3], the “stoichiometry N” value was found to be 1.
